Experimental data published in patent EP1900813A1, “NOVEL PHYSIOLOGICAL SUBSTANCE NESFATIN, SUBSTANCE RELEVANT THERETO, AND USE OF THE SUBSTANCES” (Teijin Pharma Limited, priority 2005, dated 2008).
No end group written: not given here.

What was measured:
nesfatin [1] = assay: Specificity of immunohistochemical stain of rat hypothalamus with anti-nesfatin-1 antibody after pre-reaction with peptides; format: binding; conditions: 5 µg peptide per 1 µg antibody
Method: In a method similar to that in Working Example 4, immunohistochemical stain was carried out on tissue sections of the rat brain each containing arcuate nucleus and paraventricular nucleus, in which anti-nesfatin-1 antibody (nesfatin-1 IgG; Working Example 10) was used in stead of a anti-NAP polyclonal antibody as the primary antibody.

nesfatin [2] = assay: Binding specificity of anti-nesfatin-1 antibody: Western blotting of rat brain extracts after pre-reaction with peptides; conditions: 5 µg peptide per 1 µg anti-nesfatin-1 antibody, room temperature, 1 hour
Method: Western blotting analysis was carried out by the method described in Working Example 3 with the primary antibody being changed from anti-NAP polyclonal antibody to anti-nesfatin-1 antibody.

[3] = Continuous intraventricular administration of nesfatin-1 by osmotic pump, amount of food intake and body weight; format: in vivo, Wistar rats; conditions: 5 pmol per day into the third ventricle, 10 consecutive days, vs physiological saline
Method: The administration of nesfatin-1 was carried out into the ventricle by an osmotic pump for 10 consecutive days. Among 8 week-old male Wistar rats (purchased from Nippon SLC), those individuals weighing 200-250 g were used. The rats received intraperitoneal administration of 40 mg/kg body weight of pentobarbital sodium for anesthesia. After the hair was removed from the head, they were fixed in a brain stereotaxic apparatus (David Kopf Instruments, Model 962) and the scalp was incised and a 23G needle (guide cannula) was implanted so that the tip reaches the third ventricle (2.5 mm behind the bregma, 9.5 mm from the surface). One week after implanting the guide cannula, the animals were subjected to the experiment. The osmotic pump used was Alzet's Model 2002. […] The measurement of the amount of food intake started from the day after the cannula and the osmotic pump were implanted, and the weight of the residual food was measured at 9 a.m. every day, and by determining the difference from the weight of the food on the previous day, the amount of food intake of the day (24 hours) was calculated. From day 6 after the start of administration, body weight was measured at the time of measuring the amount of food intake, and changes in body weight were also recorded.

[4] = Single administration of nesfatin-1, nesfatin-2, nesfatin-3 or nesfatin-2/3 into the third ventricle, amount of food intake; format: in vivo, Wistar rats
Method: Samples used for intracerebral administration were PBS alone (vehicle group), or nesfatin-1, nesfatin-2, nesfatin-3 or nesfatin-2/3 prepared in Working Example 10 each dissolved in PBS, and 25 pmol was administered per individual into the third ventricle immediately before the dark period. Rats used were Wistar rats (purchased from Nippon SLC) and were housed as in Working Example 6, and among 8-9 week-old male Wistar rats, those individuals weighing 200-250 g were selected and used (N=5). The technique of intraventricular administration and the measurement of the amount of food intake in rats were carried out in a method similar to those in Workig Example 6. In the measurement of the amount of food intake, the reduced amount of food at 1 hour after administration (0-1 hr) and […] (1-3 hrs) was determined as food intake.
In the same condition above, 1, 5 or 25 pmol of nesfatin-1 as a sample was administered per rat individual into the third ventricle immediately before the dark period. In this experiment, the amount of food intake was determined at 1 hour after administration (0-1 hr).
The experimental condition was similar to that in Working Example 12, and 5 pmol of nesfatin-1 was administered into the third ventricle of the rat brain immediately before the start of the dark period, the amount decreased of the food (the amount of food intake) during 1 hour immediately after administration (0-1 hr), during 2 hours from 1 hour after the administration (1-3 hr), during 3 hours from 3 hours after the administration (3-6 hr), and during 6 hours from 6 hours after the administration (6-12 hr) was measured as the amount of food intake. As the control group, the amount of food intake by individuals that received physiological saline alone was measured.

[5] = Continuous administration of nesfatin-1 into the rat ventricle, weight of adipose tissues and muscle; format: in vivo; conditions: 5 pmol per day, third ventricle, osmotic pump, 10 days; vs physiological saline
Method: Nesfatin-1 (5 pmol per day) or physiological saline alone (the control group) was administered into the third ventricle of a rat using an osmotic pump for 10 consecutive days (5 and 4 rats were used per group). Intraventricular administration into rats by the osmotic pump was carried out in a manner similar to that in Working Example 13.
After the administration of nesfatin-1 or physiological saline alone for 10 days, each rat was sacrificed, dissected to excise all of the abdominal subcutaneous adipose tissue, the epididymal adipose tissue (these are white adipose tissue) and the retroperitoneal brown adipose tissue, and the weight of them was measured. Also, the gastrocnemial muscles of the bilateral hind legs were harvested and the weight of them was measured. From the weight of the tissues measured, their ratio to the body weight of each individual was determined (tissue weight/body weight, mg/g). For testing of significant difference, analysis of variance was used.

[6] = Intraventricular administration of nesfatin-1 alone or leptin alone, amount of food intake; format: in vivo, rat; conditions: 5 pmol nesfatin-1 alone, third ventricle; vs control group (physiological saline)
Method: The experimental condition was similar to that in Working Example 12, and for a group that received 5 pmol of nesfatin-1 alone into the third ventricle of the rat brain immediately before the start of the dark period and a group that received 5 pmol of nesfatin-1 and 8 µg of anti-nesfatin-1 antibody (nesfatin-1 IgG), the amount of food intake for 1 hour after administration was measured and compared to that for the control group (physiological saline alone was administered). Also, for a group that received only leptin (Rat leptin: R & D Systems, 598-LP-01M) (1 µg) which is known to have an activity of suppressing food intake by intraventricular administration and a group that received leptin and anti-nesfatin-1 antibody, its effect on food intake was also studied.

[7] = rat brain tissue containing the arcuate nucleus
[8] = rat brain tissue section containing the paraventricular nucleus

CART: Rat Cocaine- and Amphetamine-Regulated Transcript 55-102; Peptide Institute, Inc., 4351-s (IPIYEKKYGQVPMCDAGEQCAVRKGARIGKLCDCPRGTSCNSFLLKCL; ends and bridges not checked; cysteine pairing not given here)
immunological stain with anti-nesfatin-1 antibody after pre-reaction with the peptide (nesfatin [1]; [7]): does not disappear
immunological stain with anti-nesfatin-1 antibody after pre-reaction with the peptide (nesfatin [1]; [8]): does not disappear

MCH: Human Melanin-Concentrating Hormone; Peptide Institute, Inc., 4369-v
47.5 kd band of nesfatin in Western blotting after pre-reaction of anti-nesfatin-1 antibody with the peptide (nesfatin [2]): did not disappear

NPY: Human, Rat Neuropeptide Y; Peptide Institute, Inc., 4158-v
immunological stain with anti-nesfatin-1 antibody after pre-reaction with the peptide (nesfatin [1]; [7]): does not disappear
immunological stain with anti-nesfatin-1 antibody after pre-reaction with the peptide (nesfatin [1]; [8]): does not disappear
47.5 kd band of nesfatin in Western blotting after pre-reaction of anti-nesfatin-1 antibody with the peptide (nesfatin [2]): did not disappear

Orexin-A: Human, Rat, Mouse, Bovine Orexin-A; Peptide Institute, Inc., 4346-s (QPLPDCCRQKTCSCRLYELLHGAGNHAAGILTL)
47.5 kd band of nesfatin in Western blotting after pre-reaction of anti-nesfatin-1 antibody with the peptide (nesfatin [2]): did not disappear

B1: nesfatin-1: peptide of 82 residues, amino acid Nos. 25 to 106 of nesfatin; rat nesfatin-1 (SEQ ID NO: 15) by solid-phase synthesis (peptide, UniProt Q9JI85 25-106, looked up)
Nesfatin-1: VPIDVDKTKVHNVEPVESARIEPPDTGLYYDEYLKQVIEVLETDPHFREKLQKADIEEIRSGRLSQELDLVSHKVRTRLDEL
modifications: Nesfatin-1
amount of food intake of the day (24 hours) [3]: decrease in the amount of food intake was noted from day 1
rate of increase in body weight [3]: significantly declined
amount of food intake ([4]; 5 pmol, third ventricle, 0-1 hr, vs saline group (0)): significant decrerased amount of food intake
amount of food intake ([4]; 25 pmol into the third ventricle immediately before the dark period, 0-1 hr, vs control (PBS)): marked effect on the suppression of feeding
amount of food intake ([4]; 25 pmol into the third ventricle immediately before the dark period, 1-3 hr, vs control (PBS)): marked effect on the suppression of feeding
amount of food intake ([4]; 25 pmol, third ventricle, 0-1 hr, dose experiment, vs saline group (0)): significant decrerased amount of food intake
amount of food intake ([4]; 1, 5 or 25 pmol per rat, third ventricle, 0-1 hr, dose relation vs saline group (0)): decreased amount of food intake, with the increased amount of the administered nesfation-1
amount of food intake ([4]; Working Example 27, 5 pmol, third ventricle, 0-1 hr, p<0.01 vs control): Significant decreases in the amount of food intake
amount of food intake ([4]; Working Example 27, 5 pmol, third ventricle, 1-3 hr, p<0.01 vs control): Significant decreases in the amount of food intake
amount of food intake ([4]; Working Example 27, 5 pmol, third ventricle, 3-6 hr, p<0.01 vs control): Significant decreases in the amount of food intake
amount of food intake ([4]; Working Example 27, 5 pmol, third ventricle, 6-12 hr, p<0.01 vs control): an increase in the amount of food intake
immunological stain with anti-nesfatin-1 antibody after pre-reaction with the peptide (nesfatin [1]; [7]): the stain disappears
immunological stain with anti-nesfatin-1 antibody after pre-reaction with the peptide (nesfatin [1]; [8]): the stain disappears
ratio of tissue weight to body weight, abdominal subcutaneous adipose tissue [5]: significant decreases in the ratio of tissue weight to body weight
ratio of tissue weight to body weight, epididymal adipose tissue [5]: significant decreases in the ratio of tissue weight to body weight
ratio of tissue weight to body weight, mesenteric adipose tissue [5]: significant decreases in the ratio of tissue weight to body weight
ratio of tissue weight to body weight, retroperitoneal adipose tissue [5]: tended to decrease but no significant difference
total tissue weight to the body weight, brown adipose tissue [5]: no significant difference
total tissue weight to the body weight, gastrocnemial muscle [5]: no significant difference

B2: recombinant nesfatin: recombinant matured mouse nesfatin (SEQ ID NO: 26) from E. coli GST-NEFA fusion protein treated with protease (protein)
chain: GSPIDVDKTKVHNTEPVENARIEPPDTGLYYDEYLKQVIEVLETDPHFREKLQKADIEEIRSGRLSQELDLVSHKVRTRLDELKRQEVGRLRMLIKAKLDALQDTGMNHHLLLKQFEHLNHQNPNTFESRDLDMLIKAATADLEQYDRTRHEEFKKYEMMKEHERREYLKTLSEEKRKEEESKFEEMKRKHEDHPKVNHPGSKDQLKEVWEETDGLDPNDFDPKTFFKLHDVNNDGFLDEQELEALFTRELEKVYNPQNAEDDMIEMEEERLRMREHVMSEIDNNKDRLVTLEEFLRATEKKEFLEPDSWETLDQQQLFTEDELKEYESIIAIQENELKKRAEELQKQKEDLQRQHDHLEAQKQEYHQAVQHLEQKKLQQGIAPSGPAGELKFEPHT
amount of food intake for 1 hour after administration [6]: significantly decreased
